Measurements as given in patent US20230203178A1 (SICHUAN KELUN BIOTECH BIOPHARMACEUTICAL, published 2023).

Key:
[1] = target: T1, CD19 expressed on Nalm6 cells (UniProt P15391 20-556, limits assumed); assay: cell-based or functional assay
T1 sequence (looked up): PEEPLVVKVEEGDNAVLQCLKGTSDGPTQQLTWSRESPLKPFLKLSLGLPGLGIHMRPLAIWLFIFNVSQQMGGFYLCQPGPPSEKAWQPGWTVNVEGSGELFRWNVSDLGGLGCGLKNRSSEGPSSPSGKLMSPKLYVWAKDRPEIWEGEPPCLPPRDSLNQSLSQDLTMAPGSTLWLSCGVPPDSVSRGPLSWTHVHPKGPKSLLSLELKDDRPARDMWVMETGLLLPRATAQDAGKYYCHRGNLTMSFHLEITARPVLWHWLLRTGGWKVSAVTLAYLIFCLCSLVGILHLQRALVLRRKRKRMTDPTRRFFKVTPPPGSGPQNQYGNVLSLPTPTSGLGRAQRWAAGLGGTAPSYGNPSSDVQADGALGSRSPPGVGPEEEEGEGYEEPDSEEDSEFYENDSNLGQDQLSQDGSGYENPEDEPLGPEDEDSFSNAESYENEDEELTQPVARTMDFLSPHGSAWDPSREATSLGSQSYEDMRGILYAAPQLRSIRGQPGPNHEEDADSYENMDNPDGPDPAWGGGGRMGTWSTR

[2] = target: T2, human BCMA (antigen) (human, UniProt Q02223 1-54, limits assumed); assay: flow cytometry of lentivirus-transduced T cells labelled with antigen, 48 h after transduction; percent positive cells
T2 construct: Antigen coupled to the CM5 chip in SPR; also called B-cell maturation antigen; TNFRF17
T2 sequence (looked up): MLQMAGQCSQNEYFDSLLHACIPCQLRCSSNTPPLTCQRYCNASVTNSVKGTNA
Description: (§1) The nucleic acid sequence encoding the CAR was expressed under the drive of a promoter, therefore the lentivirus-transfected T cells could be labeled with an antigen or anti-CD19 antibody and measured by flow cytometry, to reflect the expression level of the CAR on the surface of the T cells.

[3] = target: T3, human CD19 (antigen) (human, UniProt P15391 20-291, limits assumed); assay: flow cytometry of lentivirus-transduced T cells labelled with antigen or anti-CD19 antibody, 48 h after transduction; percent positive cells
T3 sequence (looked up): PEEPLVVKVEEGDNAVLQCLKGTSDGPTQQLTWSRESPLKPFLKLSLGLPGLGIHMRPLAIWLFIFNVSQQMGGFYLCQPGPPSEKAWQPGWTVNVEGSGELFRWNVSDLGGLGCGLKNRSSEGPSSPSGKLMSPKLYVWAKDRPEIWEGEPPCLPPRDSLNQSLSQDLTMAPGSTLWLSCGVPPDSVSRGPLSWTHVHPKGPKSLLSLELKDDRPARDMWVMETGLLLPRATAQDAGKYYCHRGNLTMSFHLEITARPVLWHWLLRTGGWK
Description: as §1

[4] = target: T4, BCMA expressed on target cells (CHO-K1-BCMA recombinant cell line; MM.1S; RPMI8226) (human, UniProt Q02223 1-184); assay: cell-based or functional assay
T4 sequence (looked up): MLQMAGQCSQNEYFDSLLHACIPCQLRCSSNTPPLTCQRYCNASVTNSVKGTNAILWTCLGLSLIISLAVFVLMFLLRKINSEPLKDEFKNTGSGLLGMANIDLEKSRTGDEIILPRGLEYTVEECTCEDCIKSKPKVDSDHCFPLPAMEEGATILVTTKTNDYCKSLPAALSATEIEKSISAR

Binder | lysis rate of Nalm6-luc cells by CAR-T cells, ratio 0.25:1 [1] [%] | lysis rate of Nalm6-luc cells by CAR-T cells, ratio 0.5:1 [1] [%] | lysis rate of Nalm6-luc cells by CAR-T cells, ratio 1:1 [1] [%] | lysis rate of Nalm6-luc cells by CAR-T cells, ratio 2:1 [1] [%] | Positive rate of binding to BCMA [2] [%] | Positive rate of binding to CD19 [3] [%] | lysis rate of CHO-K1-BCMA-luc cells by CAR-T cells, ratio 0.25:1 [4] [%] | lysis rate of CHO-K1-BCMA-luc cells by CAR-T cells, ratio 0.5:1 [4] [%] | lysis rate of CHO-K1-BCMA-luc cells by CAR-T cells, ratio 1:1 [4] [%] | lysis rate of CHO-K1-BCMA-luc cells by CAR-T cells, ratio 2:1 [4] [%]
TanCAR 01 (other, Tandem bispecific chimeric antigen receptor on human T cells; built here from its parts without the signal peptide; also called TanCAR 01 CAR-T) DIVMTQSPLSLPVTPGEPASISCRSSQSLVHSNGNTFLHWYLQKPGQSPQLLIYKVSNRFSGVPDRFSGSGSGTDFTLKISRVEAEDVGVYYCMQSTHVLTFGGGTKLEIKRAGGGGSGGGGSGGGGSQVQLVQSGAEVKKPGASVKVSCKASGYTFTDYLMHWVRQAPGQGLEWMGWINTETGEPTYADDFKGRVTMTRDTSTSTVYMELSSLRSEDTAVYYCAPSLYYGYSWFTYWGQGTLVTVSGGGGSGGGGSGGGGSGGGGSQVTLRESGPALVKPTQTLTLTCTFSGVSLPDYGVSWIRQPPGKALEWLAVIWGSETTYYNSALKSRLTISKDTSKNQVVLTMTNMDPVDTATYYCAKHYYYGGSYAMDYWGQGTTVTVSSGGGGSGGGGSGGGGSEIVLTQSPATLSLSPGERATLSCRASQDISKYLNWYQQKPGQAPRLLIYHTSRLHSGIPDRFSGSGSGTDFTLTISRLEPEDIAVYYCQQGNTLPYTFGQGTKLEITTTPAPRPPTPAPTIASQPLSLRPEACRPAAGGAVHTRGLDFACDIYIWAPLAGTCGVLLLSLVITLYCKRGRKKLLYIFKQPFMRPVQTTQEEDGCSCRFPEEEEGGCELRVKFSRSADAPAYKQGQNQLYNELNLGRREEYDVLDKRRGRDPEMGGKPRRKNPQEGLYNELQKDKMAEAYSEIGMKGERRRGKGHDGLYQGLSTATKDTYDALHMQALPPR | 46.1 | 40 | 56.8 | 80.6 | 11.3 | 10.6 | 31.3 | 34.3 | 63.2 | 71
H-CD19 CAR (other, Chimeric antigen receptor on human T cells; built here from its parts without the signal peptide; also called H-CD19 CAR-T; hCD19 CAR-T) QVTLRESGPALVKPTQTLTLTCTFSGVSLPDYGVSWIRQPPGKALEWLAVIWGSETTYYNSALKSRLTISKDTSKNQVVLTMTNMDPVDTATYYCAKHYYYGGSYAMDYWGQGTTVTVSSGGGGSGGGGSGGGGSEIVLTQSPATLSLSPGERATLSCRASQDISKYLNWYQQKPGQAPRLLIYHTSRLHSGIPDRFSGSGSGTDFTLTISRLEPEDIAVYYCQQGNTLPYTFGQGTKLEITTTPAPRPPTPAPTIASQPLSLRPEACRPAAGGAVHTRGLDFACDIYIWAPLAGTCGVLLLSLVITLYCKRGRKKLLYIFKQPFMRPVQTTQEEDGCSCRFPEEEEGGCELRVKFSRSADAPAYKQGQNQLYNELNLGRREEYDVLDKRRGRDPEMGGKPRRKNPQEGLYNELQKDKMAEAYSEIGMKGERRRGKGHDGLYQGLSTATKDTYDALHMQALPPR | 48 | 55 | 72.8 | 86.4 | 0.98 | 14.7 |  |  |  | 
TanCAR 04 (other, Tandem bispecific chimeric antigen receptor on human T cells; built here from its parts without the signal peptide; also called TanCAR 04 CAR-T) QVTLRESGPALVKPTQTLTLTCTFSGVSLPDYGVSWIRQPPGKALEWLAVIWGSETTYYNSALKSRLTISKDTSKNQVVLTMTNMDPVDTATYYCAKHYYYGGSYAMDYWGQGTTVTVSSGGGGSGGGGSGGGGSEIVLTQSPATLSLSPGERATLSCRASQDISKYLNWYQQKPGQAPRLLIYHTSRLHSGIPDRFSGSGSGTDFTLTISRLEPEDIAVYYCQQGNTLPYTFGQGTKLEIEAAAKEAAAKEAAAKDIVMTQSPLSLPVTPGEPASISCRSSQSLVHSNGNTFLHWYLQKPGQSPQLLIYKVSNRFSGVPDRFSGSGSGTDFTLKISRVEAEDVGVYYCMQSTHVLTFGGGTKLEIKRAGGGGSGGGGSGGGGSQVQLVQSGAEVKKPGASVKVSCKASGYTFTDYLMHWVRQAPGQGLEWMGWINTETGEPTYADDFKGRVTMTRDTSTSTVYMELSSLRSEDTAVYYCAPSLYYGYSWFTYWGQGTLVTVSTTTPAPRPPTPAPTIASQPLSLRPEACRPAAGGAVHTRGLDFACDIYIWAPLAGTCGVLLLSLVITLYCKRGRKKLLYIFKQPFMRPVQTTQEEDGCSCRFPEEEEGGCELRVKFSRSADAPAYKQGQNQLYNELNLGRREEYDVLDKRRGRDPEMGGKPRRKNPQEGLYNELQKDKMAEAYSEIGMKGERRRGKGHDGLYQGLSTATKDTYDALHMQALPPR | 72.7 | 55.8 | 68.9 | 84.1 | 15.9 | 16.1 | 36.4 | 52.6 | 68.9 | 84.1
TanCAR 03 (other, Tandem bispecific chimeric antigen receptor on human T cells; built here from its parts without the signal peptide; also called TanCAR 03 CAR-T) QVTLRESGPALVKPTQTLTLTCTFSGVSLPDYGVSWIRQPPGKALEWLAVIWGSETTYYNSALKSRLTISKDTSKNQVVLTMTNMDPVDTATYYCAKHYYYGGSYAMDYWGQGTTVTVSSGGGGSGGGGSGGGGSEIVLTQSPATLSLSPGERATLSCRASQDISKYLNWYQQKPGQAPRLLIYHTSRLHSGIPDRFSGSGSGTDFTLTISRLEPEDIAVYYCQQGNTLPYTFGQGTKLEIGGGGSGGGGSGGGGSGGGGSDIVMTQSPLSLPVTPGEPASISCRSSQSLVHSNGNTFLHWYLQKPGQSPQLLIYKVSNRFSGVPDRFSGSGSGTDFTLKISRVEAEDVGVYYCMQSTHVLTFGGGTKLEIKRAGGGGSGGGGSGGGGSQVQLVQSGAEVKKPGASVKVSCKASGYTFTDYLMHWVRQAPGQGLEWMGWINTETGEPTYADDFKGRVTMTRDTSTSTVYMELSSLRSEDTAVYYCAPSLYYGYSWFTYWGQGTLVTVSTTTPAPRPPTPAPTIASQPLSLRPEACRPAAGGAVHTRGLDFACDIYIWAPLAGTCGVLLLSLVITLYCKRGRKKLLYIFKQPFMRPVQTTQEEDGCSCRFPEEEEGGCELRVKFSRSADAPAYKQGQNQLYNELNLGRREEYDVLDKRRGRDPEMGGKPRRKNPQEGLYNELQKDKMAEAYSEIGMKGERRRGKGHDGLYQGLSTATKDTYDALHMQALPPR | 54.3 | 57.7 | 72.1 | 89.1 | 6.07 | 8.99 | 17.8 | 27.6 | 40.5 | 52.1
H-BCMA CAR (other, Chimeric antigen receptor on human T cells; built here from its parts without the signal peptide; also called H-BCMA CAR-T; BCMA CAR-T) DIVMTQSPLSLPVTPGEPASISCRSSQSLVHSNGNTFLHWYLQKPGQSPQLLIYKVSNRFSGVPDRFSGSGSGTDFTLKISRVEAEDVGVYYCMQSTHVLTFGGGTKLEIKRAGGGGSGGGGSGGGGSQVQLVQSGAEVKKPGASVKVSCKASGYTFTDYLMHWVRQAPGQGLEWMGWINTETGEPTYADDFKGRVTMTRDTSTSTVYMELSSLRSEDTAVYYCAPSLYYGYSWFTYWGQGTLVTVSTTTPAPRPPTPAPTIASQPLSLRPEACRPAAGGAVHTRGLDFACDIYIWAPLAGTCGVLLLSLVITLYCKRGRKKLLYIFKQPFMRPVQTTQEEDGCSCRFPEEEEGGCELRVKFSRSADAPAYKQGQNQLYNELNLGRREEYDVLDKRRGRDPEMGGKPRRKNPQEGLYNELQKDKMAEAYSEIGMKGERRRGKGHDGLYQGLSTATKDTYDALHMQALPPR |  |  |  |  | 26.9 | 0.31 | 0 | 27 | 40.7 | 77.9
